For four substances, Kd, dH and stoichiometry N results are on record in publication PMC4838375.

Holding throughout (experiment): ITC
(In ITC the heat of successive injections is recorded.)

In assay [1] the target is PHDVC5HCH_(NSD1) tandem domain (murine NSD1, Glu2117–Asp2207), wild type (mouse).
Assay [2] deals with PHDVC5HCH_(NSD1) H2205R (mouse) (UniProt O88491).
Assay [3] has as its target PHDVC5HCH_(NSD1) E2204A (mouse) (UniProt O88491).
Assay [4] has as its target PHDVC5HCH_(NSD1) R2152Q (mouse) (UniProt O88491).

As usually defined, the Kd is the constant that tells how readily two partners part at equilibrium. A low value points to tighter binding. Broadly, the stoichiometry N is a count of units in the complex or per binding partner. Regarding C2HR_(Nizp1) R415A (peptide), in assay [1], the Kd is 6.1 µM, the dH turned out to be 2.2 kcal/mol and the stoichiometry N is 1.1.

As to C2HR_(Nizp1) R417A (peptide), in assay [1], the Kd was 36 µM, the dH was 1.5 kcal/mol and the stoichiometry N was 1.1.

C2HR_(Nizp1) R427A (peptide) gave a dH in assay [1] of 1.7 kcal/mol.

“C2HR_(Nizp1) synthetic peptide (murine Nizp1, E397-K434), wild type”: the Kd in assay [2] stood at 27.2 µM; in assay [3], 45.2 µM; in assay [4] it was 4.9 µM; in assay [1], 3.8 µM. Besides, the dH in assay [4] was 3.5 kcal/mol; in assay [1], 4.1 kcal/mol. In assay [1], the stoichiometry N was 1.1.
